In the supplement of paper PMC12764529:
± gives the half width of the 95% confidence interval.

Columns and labels:
[1] = folding stability dG unfold from trypsin proteolysis; higher = more stable
How it was run: (§1)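 Designed mini-proteins (under 80 residues, no cysteine) in a PA-tagged cDNA display construct were digested with trypsin and chymotrypsin. Each protease was used at 11 concentrations (threefold dilutions) plus a no-protease condition, followed by sequencing. K50 was inferred by Bayesian fitting of sequencing counts, and unfolding free energy was derived against a sequence-predicted unfolded-state K50 and a shared folded-state K50, per protease or combined. Only designs with AlphaFold2 dimer inter-PAE above 15 were kept.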

[2] = folding stability dG unfold from chymotrypsin proteolysis; higher = more stable
How it was run: as §1

[3] = folding stability dG unfold (combined trypsin and chymotrypsin); higher = more stable
How it was run: as §1

Row | Sequence | folding stability dG unfold [1] [kcal/mol] | folding stability dG unfold [2] [kcal/mol] | folding stability dG unfold [3] [kcal/mol]
1 | SAGGSAGGSASSVPARLPDATVLEVTTDPATGLQTALLRFPDGSEVVVTHYPDGSVEVRPLSAGGSAGGSAG [r3_348_JUSTAS] | 1.84 ± 0.062 | 2.67 ± 0.028 | 2.47 ± 0.099
2 | SAGGSAGGSASSVVTPISHPDGRTGTKVTLPNGTVIEFIFYPDGTIIEINHSNNTTTVTPLVSAGGSAGGSA [r18_285_JUSTAS] | 1.44 ± 0.04 | 1.55 ± 0.017 | 1.53 ± 0.031
3 | SAGGSAGGSASTTVTYVEIKVTNPNPPGTPVAEYLIPLSEITEEMIEKLEKEGGLKVEVTVVLSAGGSAGGS [r12_398_JUSTAS] | 1.2 ± 0.12 | 1.44 ± 0.033 | 1.41 ± 0.058
4 | SAGGSAGGSASVKELAEKLAEPGQTVMVIKRDGKEYLIVMSDEEAEALRKLFPDMEIERVRLSAGGSAGGSA [r18_198_TrROS_Hall] | 1.59 ± 0.02 | 1.93 ± 0.023 | 1.81 ± 0.062
5 | SAGGSAGGSASVTVSPTPDDTWRVEVTETRYFFDPDGRPIGPVTITSSRVVSSEEEAAALLSAGGSAGGSAG [r3_232_JUSTAS] | 0.537 ± 0.038 | 0.397 ± 0.15 | 0.49 ± 0.15
6 | SAGGSAGGSASVTVVPSPGPTTTVVTFSPDDTVTVTTHTVDPSAATSTPTTTTVSLSDPAAASAGGSAGGSA [r18_503_JUSTAS] | 2.08 ± 0.044 | 1.44 ± 0.015 | 1.73 ± 0.03
7 | SAGGSAGGSASWITITGLLPGGRLVTTRYDPSTGSVSTETTPIPPVPAFPLGPENLALNFLLSAGGSAGGSA [r18_236_JUSTAS] | 0.706 ± 0.044 | 0.528 ± 0.19 | 0.746 ± 0.13
8 | SAGGSAGGSASYIPVTYSFFFPDKPYVERVEAEYELGPDGTPRILSAKVEVFPVDFSPDELSAGGSAGGSAG [r3_138_TrMRF] | 0.823 ± 0.039 | 0.279 ± 0.16 | 0.663 ± 0.068
9 | SAGGSAGGSATITITVDGKTITLEVPEDSEVEIVFDEKTGKLFIKDKKTNKVYEVSLEELLSAGGSAGGSAG [r3_137_TrROS_Hall] | 3.58 ± 0.22 | 3.98 ± 0.15 | 3.92 ± 0.13
10 | SAGGSAGGSATRVEVEWKDGYLVITKYETLPNGEWKEVKTIVIPIEGNDPIAIEKAKEVIEKLSAGGSAGGS [r12_169_JUSTAS] | 2.89 ± 0.051 | 2.89 ± 0.049 | 2.9 ± 0.064
11 | SAGGSAGGSATTVTVESDPATGTRFVYETDEKNPGLLKVTKVTTLPDGSVVVETGYISPEKLSAGGSAGGSA [r18_505_JUSTAS] | 1.45 ± 0.051 | 1.74 ± 0.043 | 1.61 ± 0.11
12 | SAGGSAGGSATVTVTETNEDGEETTTEVEVFEVKPPPAPVLKVEAVIDPETNELVDVKVELFASAGGSAGGS [r12_539_TrROS_Hall] | 1.36 ± 0.1 | 0.201 ± 0.14 | 0.784 ± 0.14
13 | SAGGSAGGSAVAEEFKKKFPDKTVTVEAFTFERTVTHPDGGSSTERVTVLNVTVSSSDDPGSAGGSAGGSAG [r3_358_TrMRF] | 1.35 ± 0.071 | 2.15 ± 0.1 | 1.96 ± 0.11
14 | SAGGSAGGSAVETLVTYEVPEDLPPDSLSPEAVIARFAPLGVPTEVVEIDPATGTVTVRTLVPSAGGSAGGS [r12_733_JUSTAS] | -0.377 ± 0.13 | 1 ± 0.037 | 0.664 ± 0.047
15 | SAGGSAGGSAVPFVLPDGYVLEVEPDPETGLYRIRVTSPDGRTYEFTAPPDVPLADIPVVIDDSAGGSAGGS [r12_261_TrMRF] | 2.89 ± 0.059 | 2.96 ± 0.034 | 2.95 ± 0.053
16 | SAGGSAGGSAVRTIFIPGGNIKDIIELIKSDPGQPVQIHAPDGWVIKITGDKDIDIHPFPDSAGGSAGGSAG [r3_269_TrROS] | -0.44 ± 0.2 | 0.337 ± 0.084 | 0.216 ± 0.15
17 | SAGGSAGGSAVTIYIPWDEILEELGLPPEDVEYKPMKNGSYSFKYKNGKPVTIIMPPEDFKSAGGSAGGSAG [r3_477_TrROS] | -0.12 ± 0.29 | 1.07 ± 0.2 | 0.663 ± 0.19
18 | SAGGSAGGSAVVALTPDGALAVWFPEKGVVVVYNPATGTYTVLTVDADNTVTLEDVPPNTDVFSAGGSAGGS [r12_997_TrMRF] | 1.46 ± 0.032 | 1.13 ± 0.07 | 1.34 ± 0.057
19 | SAGGSAGGSDDDENQKENQKAKPIKLEPIVEITVPYPDGFSLTVPIWRWPDGGIGIELEIFPLGSAGGSAGG [r6_326_TrROS] | 0.867 ± 0.071 | 1.44 ± 0.045 | 1.3 ± 0.37
20 | SAGGSAGGSDDMIPIPFKIKLKDPNGKPHEFPVTIWINPEDGMIMIRYPNQPIMIDPDKIEIESAGGSAGGS [r20_48_TrROS] | 0.975 ± 0.089 | 1.07 ± 0.19 | 1.01 ± 0.16
21 | SAGGSAGGSDIPIEIVDVEHTDNMISVIIKGPDGNYFVINFQFNPGNGKFNVNISIIPPEDLKSAGGSAGGS [r20_70_TrROS] | 2.07 ± 0.21 | 3.95 ± 0.26 | 3.55 ± 0.26

Row | Sequence | folding stability dG unfold [1] [kcal/mol] | folding stability dG unfold [2] [kcal/mol] | folding stability dG unfold [3] [kcal/mol]
22 | SAGGSAGGSDKIVERLQKRFPNVRISNIQPTPDGVTIQIENPDGKEFTIPYDELEKHGIEIEPSAGGSAGGS [r12_3_TrROS] | 0.217 ± 0.17 | 0.595 ± 0.085 | 0.456 ± 0.16
23 | SAGGSAGGSDKVVEFTFKIPSKDITAEDIAKAVKEAFPGVKKIEVTLYPGEGTAKVKVYLEPSSAGGSAGGS [r20_31_TrMRF] | 3.52 ± 0.16 | 4.44 ± 0.088 | 4.29 ± 0.18
24 | SAGGSAGGSDMVLVTAPVDIPPNVKVEIKLKDGYETVSYDPESGRLVILVPANKLDEVLEAIKSAGGSAGGS [r12_476_TrMRF] | 0.996 ± 0.026 | 2.01 ± 0.087 | 1.65 ± 0.075
25 | SAGGSAGGSDNVKIEWEYNPENGVYTHEVYYDDGRPVTIIINPAEGPIWVFDPPDGKPIAPIPSAGGSAGGS [r12_657_TrROS] | 1.36 ± 0.05 | 0.833 ± 0.023 | 1.07 ± 0.073
26 | SAGGSAGGSDPDLDIPPAPLEEIYIPGTGRLLVLYEPTGLVAAYPPSGSFEIGVYDPETGKISSAGGSAGGS [r12_420_TrMRF] | -0.0238 ± 0.073 | -0.775 ± 0.3 | -0.297 ± 0.12
27 | SAGGSAGGSDPSEVRLTFTVTVELTFDAVLFYEPGTGRLVAVAPYLRVEVEVEVTLTFPADALSAGGSAGGS [r12_600_TrMRF] | 3.17 ± 0.096 | 5.04 ± 0.11 | 4.63 ± 0.21
28 | SAGGSAGGSDRYLAVVFVRRADDPTPEVRTFTGIRTLADVERAVADALPADVAEVRIVVFPVRSAGGSAGGS [r20_29_TrMRF] | 1.59 ± 0.055 | 1.82 ± 0.12 | 1.67 ± 0.12
29 | SAGGSAGGSDTLEYEVPLEDGSTIRITLFPDGTARVELEDGTPVAEIEVPPDTSIEELIARIRSAGGSAGGS [r12_990_TrMRF] | 2.74 ± 0.081 | 2.06 ± 0.063 | 2.45 ± 0.076
30 | SAGGSAGGSDTPTINIPPGMGNPEQAIEQLKEIREHFPPGKKISISAPGGWKPELKEAGLITVSAGGSAGGS [r12_992_TrROS] | -0.37 ± 0.11 | 1.23 ± 0.08 | 0.513 ± 0.11
31 | SAGGSAGGSDVEVEEVDVEIEVNGKKFKVKIYRNKKDKNRYYIFFEDTGKVFEIDKNGNIRPLSAGGSAGGS [r12_580_TrROS_Hall] | 2.74 ± 0.1 | 3.49 ± 0.044 | 3.21 ± 0.064
32 | SAGGSAGGSDVEVTVTLEYDEETGVLYVTAEVRDKETGRTVRVVVKFDLETNEWEVVAVEVLPSAGGSAGGS [r20_163_TrROS_Hall] | 2.92 ± 0.16 | 4.25 ± 0.16 | 3.91 ± 0.11
33 | SAGGSAGGSDVSEEELRAIAEEIAAELGLSDITVEVEKLPTAVVRITITNPATGETIEIEVPESAGGSAGGS [r12_1000_JUSTAS] | 1.75 ± 0.038 | 1.77 ± 0.061 | 1.79 ± 0.047
34 | SAGGSAGGSDVTVTEYDVTLTVDVTFTAPDANGNPVTTTTPVTIPLKVTVFDFGTARLVVVEGSAGGSAGGS [r20_58_TrMRF] | 2.86 ± 0.087 | 3.82 ± 0.048 | 3.57 ± 0.058
35 | SAGGSAGGSDYEYENEKDPDGQTKMKMRPKPPPVTVEVLIKLPNGLYFPIEITIYGNHITISISAGGSAGGS [r12_784_TrROS] | 2.17 ± 0.12 | 2.52 ± 0.075 | 2.32 ± 0.23
36 | SAGGSAGGSDYKIEIEVEPMDPEDGYYQVELEIYDPNNGEPKEKIPVHMDSPEDAKDAIKELISAGGSAGGS [r12_26_TrROS] | 0.499 ± 0.09 | 0.362 ± 0.024 | 0.456 ± 0.084
37 | SAGGSAGGSEEELKKLLDNIKEVKVVENENGEKYVVFTVTDKNGKKITIVAKSPEARELAKKLSAGGSAGGS [r12_466_TrROS_Hall] | 1.45 ± 0.066 | 2.35 ± 0.046 | 1.96 ± 0.11
38 | SAGGSAGGSEEKTVLARIKITFPDGEKREIEVEMTLDELKKLLEELGLSEEEVKIEVELVPLPSAGGSAGGS [r20_154_TrROS_Hall] | 3.99 ± 0.11 | 3.56 ± 0.071 | 3.8 ± 0.087
39 | SAGGSAGGSEEREYVEVEFEFLARLEDGSLLVTRVRLLLPAEPAELRPEVRSEVLPLAPGEELSAGGSAGGS [r12_811_TrMRF] | 1.48 ± 0.071 | 2.7 ± 0.063 | 2.22 ± 0.16
40 | SAGGSAGGSEFYVIKIKNPETKKEIELVFEGSEEEIKAAIEELAKKPNLKIEIKKIKVSKEELSAGGSAGGS [r12_92_TrROS_Hall] | 1.43 ± 0.085 | 1.78 ± 0.074 | 1.89 ± 0.18
41 | SAGGSAGGSEITILIKDENGYLIKVKVELKLKKNKDGKKTLELKIEITEIYKVPSKEEAKKLLSAGGSAGGS [r12_915_TrROS_Hall] | 0.755 ± 0.1 | 2.08 ± 0.11 | 1.78 ± 0.22
42 | SAGGSAGGSEKEIVLVVKSKEDALKAAEELAKALGLEVEVEVIEVKTLENGEKYVVVKITIKDSAGGSAGGS [r12_924_TrROS_Hall] | 3.75 ± 0.16 | 3.7 ± 0.091 | 3.74 ± 0.2
